Residue numbers refer to the chain shown, from its start. Names and notes keep the numbering of the source. Like-named read-outs stand apart in the source and are kept apart here.
B1: Pyrococcus furiosus RNase P protein RPP29 (natural protein)
chain: MWRNSEERENRTSGRSQGSYQEIIGRTWIFRGAHRGRVNKKNIVWHELIGLKVRVVNSTHPGYVGIEGYVIDETRNMLVIAGENKVWKVPKDVCIFEFETWDGTKIKISGEKLVGRPEMRLKKRWRK
B2: Pyrococcus furiosus RNase P protein RPP21 (natural protein)
chain: MAKYNEKKEKKRIAKERIDILFSLAERVFPYSPELAKRYVELALLVQQKAKVKIPRKWKRRYCKKCHAFLVPGINARVRLRQKRMPHIVVKCLECGHIMRYPYIKEIKKRRKEKMEY
B3: Pyrococcus furiosus RPP21/A14V (natural protein)
chain: B2 chain with A14V

What was measured:
Assay in all cases: ITC
[1] = biological target: B2
[2] = biological target: B2; remark: listed apart in the source
[3] = biological target: B2; remark: listed apart in the source
[4] = biological target: B2; remark: listed apart in the source
[5] = biological target: B2; remark: listed apart in the source
[6] = biological target: B2; remark: listed apart in the source
[7] = biological target: B2; remark: listed apart in the source
[8] = biological target: B2; remark: listed apart in the source
[9] = biological target: B2; remark: listed apart in the source
[10] = biological target: B2; remark: listed apart in the source
[11] = biological target: B2; remark: listed apart in the source
[12] = biological target: B1
[13] = biological target: B1; remark: listed apart in the source
[14] = biological target: B1; remark: listed apart in the source
[15] = biological target: B1; remark: listed apart in the source
[16] = biological target: B1; remark: listed apart in the source
[17] = biological target: B1; remark: listed apart in the source
[18] = biological target: B1; remark: listed apart in the source
[19] = biological target: B1; remark: listed apart in the source
[20] = biological target: B1; remark: listed apart in the source

Binder: B1
dH [1]: -23.5 kcal/mol | stoichiometry N [1]: 1 RPP29 per RPP21 | dH [2]: -5.19 kcal/mol | stoichiometry N [2]: 0.986 RPP29 per RPP21 | dH [3]: 5.95 kcal/mol | stoichiometry N [3]: 0.9 RPP29 per RPP21 | dH [4]: -15.8 kcal/mol | stoichiometry N [4]: 1.03 RPP29 per RPP21 | dH [5]: -37.6 kcal/mol | dH [6]: 11.6 kcal/mol | stoichiometry N [6]: 1.01 RPP29 per RPP21 | dH [7]: 17.1 kcal/mol | stoichiometry N [7]: 0.956 RPP29 per RPP21 | dH [8]: -10.2 kcal/mol | stoichiometry N [8]: 0.998 RPP29 per RPP21 | dH [9]: -43 kcal/mol | dH [10]: -32 kcal/mol | stoichiometry N [10]: 0.97 RPP29 per RPP21 | dH [11]: -34.3 kcal/mol

Binder: B2
Ka [12]: 1.07e+07 M⁻¹ | Ka [13]: 3.32e+07 M⁻¹ | Ka [14]: 9.55e+06 M⁻¹ | Ka [15]: 1.71e+07 M⁻¹ | Ka [16]: 1.09e+07 M⁻¹ | Ka [17]: 9.17e+06 M⁻¹ | Ka [18]: 2.01e+07 M⁻¹ | Ka [19]: 2.04e+06 M⁻¹

Binder: B3
binding result [20]: binds

From article PMC3964601 (Biochemistry, 2012)
